Test results as given in the supplement of paper PMC5998384.

Experiments:
HeLa Kyoto [1] = assay: solubility change mitosis vs G1/S (difference of NP-40 vs SDS log2 ratios) (log2 ratio difference); higher = more soluble in mitosis
HeLa Kyoto [2] = assay: melting temperature (median over replicates), in situ; higher = more thermally stable
HeLa Kyoto [3] = assay: thermal stability score vs G1/S (z-score of summed log2 fold changes over temperatures); higher = more thermally stable than in G1/S
HeLa Kyoto [4] = assay: solubility in G1/S (NP-40 vs SDS abundance) (log2 ratio); higher = more soluble; details: cell cycle stage: G1/S
[5] = cell cycle stage: early G1 (4.5 h after nocodazole release)
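Wherever melting temperature (median over replicates), in situ is given: HeLa Kyoto cells synchronized by double thymidine or nocodazole block, proteins quantified by TMT10plex mass spectrometry, three independent biological replicates.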
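Wherever solubility change mitosis vs G1/S (difference of NP-40 vs SDS log2 ratios) is given: synchronized HeLa Kyoto cells (double thymidine block for G1/S, nocodazole release for mitosis), protein amounts in NP-40 versus SDS lysates quantified by mass spectrometry, three biological replicates.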
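Wherever solubility in G1/S (NP-40 vs SDS abundance) is given: HeLa Kyoto cells arrested at G1/S by double thymidine block, proteins quantified by TMT10plex mass spectrometry in mild NP-40 versus SDS extracts, three biological replicates.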
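Wherever thermal stability score vs G1/S (z-score of summed log2 fold changes over temperatures) is given: synchronized HeLa Kyoto cells, proteins quantified by TMT10plex mass spectrometry, three biological replicates, mitosis taken 0.5 h after nocodazole release, G1/S directly after double thymidine block.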

Sequence of LARP4B (chain, as listed by the source): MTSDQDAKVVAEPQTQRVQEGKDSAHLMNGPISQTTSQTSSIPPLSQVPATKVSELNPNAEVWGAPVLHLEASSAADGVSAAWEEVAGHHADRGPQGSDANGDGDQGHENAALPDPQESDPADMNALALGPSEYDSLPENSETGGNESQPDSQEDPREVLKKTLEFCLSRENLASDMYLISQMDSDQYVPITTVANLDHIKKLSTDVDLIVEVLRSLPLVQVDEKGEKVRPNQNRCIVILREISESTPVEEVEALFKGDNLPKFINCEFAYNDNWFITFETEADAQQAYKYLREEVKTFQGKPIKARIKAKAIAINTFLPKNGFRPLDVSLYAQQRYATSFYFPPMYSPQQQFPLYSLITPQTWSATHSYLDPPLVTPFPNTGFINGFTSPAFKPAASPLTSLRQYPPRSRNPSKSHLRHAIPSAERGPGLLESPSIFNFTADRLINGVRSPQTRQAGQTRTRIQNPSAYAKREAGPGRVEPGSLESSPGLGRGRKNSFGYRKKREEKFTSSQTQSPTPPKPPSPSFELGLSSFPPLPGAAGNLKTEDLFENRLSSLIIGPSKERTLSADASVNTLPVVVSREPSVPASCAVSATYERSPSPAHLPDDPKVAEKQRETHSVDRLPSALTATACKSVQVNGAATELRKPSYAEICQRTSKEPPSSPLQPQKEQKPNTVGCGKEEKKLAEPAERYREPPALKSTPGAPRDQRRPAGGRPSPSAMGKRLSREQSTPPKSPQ

| Substance | solubility change mitosis (log2) (HeLa Kyoto [1]) | melting temperature (HeLa Kyoto [2]; cell cycle stage: G1/S) [°C] | melting temperature (HeLa Kyoto [2]; cell cycle stage: mitosis) [°C] | thermal stability score (HeLa Kyoto [3]; [5]) | thermal stability score (HeLa Kyoto [3]; cell cycle stage: mitosis) | solubility in G1/S (log2) (HeLa Kyoto [4]) |
| --- | --- | --- | --- | --- | --- | --- |
| MKRRLDDQESPVYAAQQRRIPGSTEAFPHQHRVLAPAPPVYEAVSETMQSATGIQYSVTPSYQVSAMPQSSGSHGPAIAAVHSSHHHPTAVQPHGGQVVQSHAHPAPPVAPVQGQQQFQRLKVEDALSYLDQVKLQFGSQPQVYNDFLDIMKEFKSQSIDTPGVISRVSQLFKGHPDLIMGFNTFLPPGYKIEVQTNDMVNVTTPGQVHQIPTHGIQPQPQPPPQHPSQPSAQSAPAPAQPAPQPPPAKVSKPSQLQAHTPASQQTPPLPPYASPRSPPVQPHTPVTISLGTAPSLQNNQPVEFNHAINYVNKIKNRFQGQPDIYKAFLEILHTYQKEQRNAKEAGGNYTPALTEQEVYAQVARLFKNQEDLLSEFGQFLPDANSSVLLSKTTAEKVDSVRNDHGGTVKKPQLNNKPQRPSQNGCQIRRHPTGTTPPVKKKPKLLNLKDSSMADASKHGGGTESLFFDKVRKALRSAEAYENFLRCLVIFNQEVISRAELVQLVSPFLGKFPELFNWFKNFLGYKESVHLETYPKERATEGIAMEIDYASCKRLGSSYRALPKSYQQPKCTGRTPLCKEVLNDTWVSFPSWSEDSTFVSSKKTQYEEHIYRCEDERFELDVVLETNLATIRVLEAIQKKLSRLSAEEQAKFRLDNTLGGTSEVIHRKALQRIYADKAADIIDGLRKNPSIAVPIVLKRLKMKEEEWREAQRGFNKVWREQNEKYYLKSLDHQGINFKQNDTKVLRSKSLLNEIESIYDERQEQATEENAGVPVGPHLSLAYEDKQILEDAAALIIHHVKRQTGIQKEDKYKIKQIMHHFIPDLLFAQRGDLSDVEEEEEEEMDVDEATGAVKKHNGVGGSPPKSKLLFSNTAAQKLRGMDEVYNLFYVNNNWYIFMRLHQILCLRLLRICSQAERQIEEENREREWEREVLGIKRDKSDSPAIQLRLKEPMDVDVEDYYPAFLDMVRSLLDGNIDSSQYEDSLREMFTIHAYIAFTMDKLIQSIVRQLQHIVSDEICVQVTDLYLAENNNGATGGQLNTQNSRSLLESTYQRKAEQLMSDENCFKLMFIQSQGQVQLTIELLDTEEENSDDPVEAERWSDYVERYMNSDTTSPELREHLAQKPVFLPRNLRRIRKCQRGREQQEKEGKEGNSKKTMENVDSLDKLECRFKLNSYKMVYVIKSEDYMYRRTALLRAHQSHERVSKRLHQRFQAWVDKWTKEHVPREMAAETSKWLMGEGLEGLVPCTTTCDTETLHFVSINKYRVKYGTVFKAP [SIN3A] | -0.073 | 48.4 | 49.5 | 1.76 | 4.27 | -0.136 |
| MGRRALLLLLLSFLAPWATIALRPALRALGSLHLPTNPTSLPAVAKNYSVLYFQQKVDHFGFNTVKTFNQRYLVADKYWKKNGGSILFYTGNEGDIIWFCNNTGFMWDVAEELKAMLVFAEHRYYGESLPFGDNSFKDSRHLNFLTSEQALADFAELIKHLKRTIPGAENQPVIAIGGSYGGMLAAWFRMKYPHMVVGALAASAPIWQFEDLVPCGVFMKIVTTDFRKSGPHCSESIHRSWDAINRLSNTGSGLQWLTGALHLCSPLTSQDIQHLKDWISETWVNLAMVDYPYASNFLQPLPAWPIKVVCQYLKNPNVSDSLLLQNIFQALNVYYNYSGQVKCLNISETATSSLGTLGWSYQACTEVVMPFCTNGVDDMFEPHSWNLKELSDDCFQQWGVRPRPSWITTMYGGKNISSHTNIVFSNGELDPWSGGGVTKDITDTLVAVTISEGAHHLDLRTKNALDPMSVLLARSLEVRHMKNWIRDFYDSAGKQH [PRCP] | -0.246 | 58.5 | 54.1 | -0.942 | -2.23 | 0.0413 |
| LARP4B | 0.533 | 50.8 | 50 | -0.656 | -1.1 | -0.183 |
| MGGKNKKHKAPAAAVVRAAVSASRAKSAEAGIAGEAQSKKPVSRPATAAAAAAGSREPRVKQGPKIYSFNSTNDSSGPANLDKSILKVVINNKLEQRIIGVINEHKKQNNDKGMISGRLTAKKLQDLYMALQAFSFKTKDIEDAMTNTLLYGGDLHSALDWLCLNLSDDALPEGFSQEFEEQQPKSRPKFQSPQIQATISPPLQPKTKTYEEDPKSKPKKEEKNMEVNMKEWILRYAEQQNEEEKNENSKSLEEEEKFDPNERYLHLAAKLLDAKEQAATFKLEKNKQGQKEAQEKIRKFQREMETLEDHPVFNPAMKISHQQNERKKPPVATEGESALNFNLFEKSAAATEEEKDKKKEPHDVRNFDYTARSWTGKSPKQFLIDWVRKNLPKSPNPSFEKVPVGRYWKCRVRVIKSEDDVLVVCPTILTEDGMQAQHLGATLALYRLVKGQSVHQLLPPTYRDVWLEWSDAEKKREELNKMETNKPRDLFIAKLLNKLKQQQQQQQQHSENKRENSEDPEESWENLVSDEDFSALSLESANVEDLEPVRNLFRKLQSTPKYQKLLKERQQLPVFKHRDSIVETLKRHRVVVVAGETGSGKSTQVPHFLLEDLLLNEWEASKCNIVCTQPRRISAVSLANRVCDELGCENGPGGRNSLCGYQIRMESRACESTRLLYCTTGVLLRKLQEDGLLSNVSHVIVDEVHERSVQSDFLLIILKEILQKRSDLHLILMSATVDSEKFSTYFTHCPILRISGRSYPVEVFHLEDIIEETGFVLEKDSEYCQKFLEEEEEVTINVTSKAGGIKKYQEYIPVQTGAHADLNPFYQKYSSRTQHAILYMNPHKINLDLILELLAYLDKSPQFRNIEGAVLIFLPGLAHIQQLYDLLSNDRRFYSERYKVIALHSILSTQDQAAAFTLPPPGVRKIVLATNIAETGITIPDVVFVIDTGRTKENKYHESSQMSSLVETFVSKASALQRQGRAGRVRDGFCFRMYTRERFEGFMDYSVPEILRVPLEELCLHIMKCNLGSPEDFLSKALDPPQLQVISNAMNLLRKIGACELNEPKLTPLGQHLAALPVNVKIGKMLIFGAIFGCLDPVATLAAVMTEKSPFTTPIGRKDEADLAKSALAMADSDHLTIYNAYLGWKKARQEGGYRSEITYCRRNFLNRTSLLTLEDVKQELIKLVKAAGFSSSTTSTSWEGNRASQTLSFQEIALLKAVLVAGLYDNVGKIIYTKSVDVTEKLACIVETAQGKAQVHPSSVNRDLQTHGWLLYQEKIRYARVYLRETTLITPFPVLLFGGDIEVQHRERLLSIDGWIYFQAPVKIAVIFKQLRVLIDSVLRKKLENPKMSLENDKILQIITELIKTENN [DHX29] | 0.00585 | 51.7 | 50.7 | -0.474 | -0.738 | -0.444 |
| MGSRDHLFKVLVVGDAAVGKTSLVQRYSQDSFSKHYKSTVGVDFALKVLQWSDYEIVRLQLWDIAGQERFTSMTRLYYRDASACVIMFDVTNATTFSNSQRWKQDLDSKLTLPNGEPVPCLLLANKCDLSPWAVSRDQIDRFSKENGFTGWTETSVKENKNINEAMRVLIEKMMRNSTEDIMSLSTQGDYINLQTKSSSWSCC [RAB29] | -0.119 | 53 | 52.9 | -0.342 | -0.372 | 0.0397 |
| MEKILQMAEGIDIGEMPSYDLVLSKPSKGQKRHLSTCDGQNPPKKQAGSKFHARPRFEPVHFVASSSKDERQEDPYGPQTKEVNEQTHFASMPRDIYQDYTQDSFSIQDGNSQYCDSSGFILTKDQPVTANMYFDSGNPAPSTTSQQANSQSTPEPSPSQTFPESVVAEKQYFIEKLTATIWKNLSNPEMTSGSDKINYTYMLTRCIQACKTNPEYIYAPLKEIPPADIPKNKKLLTDGYACEVRCQNIYLTTGYAGSKNGSRDRATELAVKLLQKRIEVRVVRRKFKHTFGEDLVVCQIGMSSYEFPPALKPPEDLVVLGKDASGQPIFNASAKHWTNFVITENANDAIGILNNSASFNKMSIEYKYEMMPNRTWRCRVFLQDHCLAEGYGTKKTSKHAAADEALKILQKTQPTYPSVKSSQCHTGSSPRGSGKKKDIKDLVVYENSSNPVCTLNDTAQFNRMTVEYVYERMTGLRWKCKVILESEVIAEAVGVKKTVKYEAAGEAVKTLKKTQPTVINNLKKGAVEDVISRNEIQGRSAEEAYKQQIKEDNIGNQLLRKMGWTGGGLGKSGEGIREPISVKEQHKREGLGLDVERVNKIAKRDIEQIIRNYARSESHTDLTFSRELTNDERKQIHQIAQKYGLKSKSHGVGHDRYLVVGRKRRKEDLLDQLKQEGQVGHYELVMPQAN [NKRF] | 0.226 | 44.4 | 48 | 3.45 | 6.93 | -0.517 |
